Test results: patent publication US20230398184A1, “METHODS OF INDUCING STEM CELL MOBILIZATION” (NeoImmuneTech, Inc., priority 2020, published 2023)

B1: PEG-rhG-CSF: long-acting pegylated recombinant human G-CSF (protein, UniProt P09919 31-207, looked up)
Granulocyte …: TPLGPASSLPQSFLLKCLEQVRKIQGDGAALQEKLVSECATYKLCHPEELVLLGHSLGIPWAPLSSCPSQALQLAGCLSQLHSGLFLYQGLLQALEGISPELGPTLDTLQLDVADFATTIWQQMEELGMAPALQPTQGAMPAFASAFQRRAGGVLVASHLQSFLEVSYRVLRHLAQP
modifications: PEG
B2: rhG-CSF: non-pegylated recombinant human G-CSF (protein, UniProt P09919 31-207, looked up)
Granulocyte …: B1 Granulocyte …

Tests used:
Type in all cases: in vivo, C57BL/6 mice
[1] = test system: LSK cells and HSCs; assay: IL-7 and AMD3100 combination, HSC mobilization into peripheral blood; conditions: IL-7 0.5 mg/kg day 0; AMD3100 5 mg/kg 1 hour prior to analysis; day 3
Procedure: As described herein, AMD3100 (CXCR4 antagonist) is another regimen that is commonly used to promote the migration of HSCs from the bone marrow into the peripheral blood. Cashen et al., Future Oncol 3(1): 19-27 (February 2007). To determine whether IL-7 can also enhance the HSC mobilization effects of AMD3100, C57BL/6 animals received a single subcutaneous administration of the following: (i) buffer alone, (ii) IL-7 alone (0.5 mg/kg), (iii) AMD3100 (5 mg/kg), and (iv) IL-7 (0.5 mg/kg) in combination with AMD3100 (5 mg/kg). […] At day 3 post initial administration, the number of both LSK cells and HSCs were again assessed in the peripheral blood using flow cytometry.

[2] = test system: LSK cells and HSCs; assay: Comparison of IL-7 with G-CSF and G-CSF + AMD3100 on mobilization of HSCs to peripheral blood; conditions: PEG-rhG-CSF 5 μg s.c. day 3; rhG-CSF 6.25 μg/day days 0-3
Procedure: As described herein, granulocyte colony stimulating factor (G-CSF) is a standard regimen used in the clinic to induce HSC mobilization. Therefore, the potency of IL-7 was compared to that of G-CSF on inducing the mobilization of HSCs to peripheral blood was assessed. Briefly, C57BL/6 mice were treated with one of the following: (i) control buffer (“control”), (ii) IL-7 protein (“IL-7”) (2.5 mg/kg; subcutaneous), (iii) long-acting pegylated recombinant human G-CSF (“PEG-rhG-CSF”) (5 μg; subcutaneous), or (iv) non-pegylated recombinant human G-CSF (“rhG-CSF”) (twice a day (6.25 μg/day) at days 0, 1, 2, and 3 (i.e., total dose of 25 μg/mouse); subcutaneous). In animals treated with the IL-7 protein or PEG-rhG-CSF, the number of LSK cells and HSCs was determined in the peripheral blood at day 3 post administration. In animals treated with rhG-CSF, the number of LSK cells and HSCs in the peripheral blood was assessed within 6-8 hours after last rhG-CSF administration.
In this regard, the potency of IL-7 protein alone to the G-CSF+AMD3100 combinational regimen was next compared. Briefly, normal C57BL/6 mice were administered with one of the following: (i) control buffer, (ii) IL-7 protein alone, (iii) pegylated recombinant human G-CSF (“G-CSF”), or (iv) G-CSF in combination with AMD3100. Then, the number of HSCs in the peripheral blood was assessed at day 3 post administration.

[3] = test system: LSK cells and HSCs; assay: IL-7 and G-CSF combination, HSC mobilization into peripheral blood; conditions: IL-7 0.5 mg/kg or G-CSF 5 μg s.c., day 3
Procedure: To determine whether the combined treatment of IL-7 and G-CSF can further improve the mobilization of HSCs into the peripheral blood, C57BL/6 animals received a single subcutaneous administration of one of the following: (i) buffer alone, (ii) IL-7 alone (0.5 mg/kg), (iii) pegylated recombinant human G-CSF alone (5 μg), and (iv) IL-7 (0.5 mg/kg) in combination with G-CSF (5 μg). Then, at day 3 post administration, both the number of LSK cells and HSCs in the peripheral blood were assessed using flow cytometry.

Molecule	amount of LSK cells and HSCs in peripheral blood vs control [1]	efficacy of mobilization, the two types of G-CSF compared [2]	amount of LSK cells in peripheral blood vs buffer alone [3]
c1cc(CN2CCCNCCNCCCNCC2)ccc1CN1CCCNCCNCCCNCC1 [AMD3100]	comparable to that of the control animals	–	–
B1	–	comparable efficacy of mobilization	increased amount
B2	–	comparable efficacy of mobilization	–
